pIC50, pKd: −log10 of the molar value.
Legend:
[1] = target: T1, human alpha-CGRP (L-peptide) (Homo sapiens) (UniProt P06881); assay: SPR; details: L-RNA; 37 C
T1 sequence: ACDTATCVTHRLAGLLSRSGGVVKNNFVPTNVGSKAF

[2] = system: T2, rat amylin (L-peptide) (Rattus norvegicus); assay: cell_activity; details: L-RNA, L-dC at 41, 5'-40 kDa PEG; cAMP inhibition, MCF-7 cells; p375 prints human amylin for this value but p377 indicates rat amylin
T2 sequence: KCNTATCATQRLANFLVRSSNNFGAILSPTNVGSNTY

| Sequence | pKd [1] | pIC50 [2] |
| --- | --- | --- |
| CGUGCUGUCGGAGACUACUCGUCGAGUAGAAAUAGGUCCCCUCCCACG [212-G1-001 (L)] | 8.29 | – |
| CCGUGCUGUCGGAGACUACUCGUCGAGUAGAAAUAGGUCCCCUCCCACGG [NOX-L41 (226-F2-001-D41-5'-40kDa-PEG)] | – | 6.55 |
| CCGUGCUGUCGGAGACUACUCGUCGAGUAGAAAUAGGUCCCCUCCCACGG [226-F2-001 (L)] | 8.58 | – |

Reference: patent US20150031755
